Measurements: article PMC3464217, “Anti-HIV Double Variable Domain Immunoglobulins Binding Both gp41 and gp120 for Targeted Delivery of Immunoconjugates” (PLoS ONE, 2012)

Molecular target: T1, recombinant gp160 (HIV-1 group M subtype B, IIIB (clone …, UniProt P03375, strain))
T1 construct: also called rgp160; source: bought: Quality Biological; recombinant, expressed in mammalian cells
Experiment: SPR
Details: both partners purified

B1: 7B2 (antibody, V domains shown)
VH: QVQLVQSGGGVFKPGGSLRLSCEASGFTFTEYYMTWVRQAPGKGLEWLAYISKNGEYSKYSPSSNGRFTISRDNAKNSVFLQLDRLSADDTAVYYCARADGLTYFSELLQYIFDLWGQGARVTVSS
VL: DIVMTQSPDSLAVSPGERATIHCKSSQTLLYSSNNRHSIAWYQQRPGQPPKLLLYWASMRLSGVPDRFSGSGSGTDFTLTINNLQAEDVAIYYCHQYSSHPPTFGHGTRVELR
notes: also called anti-gp41 Ab (7B2); 7B2 parent; source: 293F cells, transiently transfected; purified from supernatant on Protein A agarose
  binding result: binds
